Target: SARS-CoV-2 spike receptor-binding domain (RBD), amino acids 333 to 529, bacteria-expressed and refolded (SARS-CoV-2, wild type (parental), UniProt P0DTC2)
Test: SPR
Settings: both partners purified

B1: Sybody Sb68 (VHH)
VHH: QVQLVESGGGSVQAGGSLRLSCAASGSISSITYLGWFRQAPGKEREGVAALITVNGHTYYADSVKGRFTVSLDNAKNTVYLQMNSLKPEDTALYYCAAAAWGYAWPLHQDDYWYWGQGTQVTVSA
Kd: 63 nM

Source: PMC8219104 (Research Square, 2021)
